According to paper PMC5314801 (Nucleic Acids Research, 2016):
Positions count from the first letter of the chain named. In names and notes the source's numbering stands.

T1: RsaL (crystal) (UniProt Q9X7H4 1-80)
T1 sequence: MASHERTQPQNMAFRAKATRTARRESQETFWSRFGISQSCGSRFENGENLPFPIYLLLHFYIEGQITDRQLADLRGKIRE

B1: lasI promoter crystal duplex DNA_F/DNA_R (dsDNA)
DNA 1: AAAAATTATGAAATTTGCATAAATTC
DNA 2: TGAATTTATGCAAATTTCATAATTTT
B2: RsaL (natural protein, Pseudomonas aeruginosa, UniProt Q9X7H4 1-80, looked up)
chain: T1 sequence
B3: RsaL R20A (natural protein, Pseudomonas aeruginosa, UniProt Q9X7H4 1-80, looked up)
chain: T1 sequence with R20A
B4: RsaL with Glu45 mutated to Ala (natural protein, Pseudomonas aeruginosa, UniProt Q9X7H4 1-80, looked up)
chain: T1 sequence with E45A
B5: RsaL^R43A (natural protein, Pseudomonas aeruginosa, UniProt Q9X7H4 1-80, looked up)
chain: T1 sequence with R43A
B6: RsaL^Q27A (natural protein, Pseudomonas aeruginosa, UniProt Q9X7H4 1-80, looked up)
chain: T1 sequence with Q27A
B7: RsaL^Q38A (natural protein, Pseudomonas aeruginosa, UniProt Q9X7H4 1-80, looked up)
chain: T1 sequence with Q38A

What was measured:
RsaL (crystal) = target: T1, RsaL (crystal); assay: X-ray crystallography
crystal structure = target: the molecule itself; assay: crystal structure
SEC = target: the molecule itself; assay: SEC

| Binder | stoichiometry N (SEC) | also measured |
| --- | --- | --- |
| B1 |  | binding result (RsaL (crystal)): binds |
| B2 |  | binding result (crystal structure): binds |
| B3 | 2 |  |
| B4 | 2 |  |
| B5 | 2 |  |
| B6 | 2 |  |
| B7 | 2 |  |
